Source: US20230167164A1 (IMMUNOWAKE, published 2023)

Target: T1, human IL-2 receptor (human, UniProt P01589 22-272; P14784 27-551; P31785 23-369)
T1 construct: whole, on cells; also called IL-2Rα, IL-2Rβ, IL-2Rγ; HEK-Blue IL-2 cells
T1 sequence (looked up) 1: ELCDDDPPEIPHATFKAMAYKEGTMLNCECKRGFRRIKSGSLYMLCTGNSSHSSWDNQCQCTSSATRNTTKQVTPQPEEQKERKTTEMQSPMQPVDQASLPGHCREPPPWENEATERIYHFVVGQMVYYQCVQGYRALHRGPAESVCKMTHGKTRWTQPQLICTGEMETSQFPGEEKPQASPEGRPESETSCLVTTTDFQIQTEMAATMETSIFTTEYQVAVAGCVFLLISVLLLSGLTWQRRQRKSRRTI
T1 sequence (looked up) 2: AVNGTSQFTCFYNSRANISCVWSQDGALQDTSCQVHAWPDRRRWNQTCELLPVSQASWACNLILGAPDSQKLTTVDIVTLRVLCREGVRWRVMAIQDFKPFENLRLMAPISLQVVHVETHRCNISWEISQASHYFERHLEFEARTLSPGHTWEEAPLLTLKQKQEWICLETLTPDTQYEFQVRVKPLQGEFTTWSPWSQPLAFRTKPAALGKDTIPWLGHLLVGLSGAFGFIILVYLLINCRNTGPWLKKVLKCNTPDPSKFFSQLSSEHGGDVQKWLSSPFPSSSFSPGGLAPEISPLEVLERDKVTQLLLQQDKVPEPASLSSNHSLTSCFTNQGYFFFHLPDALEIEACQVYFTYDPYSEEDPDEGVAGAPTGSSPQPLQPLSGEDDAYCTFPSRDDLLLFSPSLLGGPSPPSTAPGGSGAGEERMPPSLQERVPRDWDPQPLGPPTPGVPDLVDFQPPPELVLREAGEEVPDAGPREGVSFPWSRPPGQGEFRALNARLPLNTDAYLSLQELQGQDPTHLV
T1 sequence (looked up) 3: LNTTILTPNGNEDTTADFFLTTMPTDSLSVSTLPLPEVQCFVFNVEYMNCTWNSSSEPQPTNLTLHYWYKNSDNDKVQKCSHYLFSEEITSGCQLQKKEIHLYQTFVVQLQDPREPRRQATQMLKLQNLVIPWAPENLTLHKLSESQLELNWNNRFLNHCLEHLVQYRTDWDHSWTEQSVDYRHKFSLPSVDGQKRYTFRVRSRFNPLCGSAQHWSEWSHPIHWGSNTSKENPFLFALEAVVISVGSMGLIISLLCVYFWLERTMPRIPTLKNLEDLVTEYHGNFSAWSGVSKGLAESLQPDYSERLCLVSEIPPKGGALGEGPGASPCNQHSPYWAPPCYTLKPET
Assay: FACS on HEK-Blue IL-2 cells (IL-2 receptor, no PD-1)

B1: ligand-IL-2 mutant-PD-L2-Fc (Fc fusion)
chain 1: LFTVTVPKELYIIEHGSNVTLECNFDTGSHVNLGAITASLQKVENDTSPHRERATLLEEQLPLGKASFHIPQVQVRDEGQYQCIIIYGVAWDYKYLTLKVKASYRKINTHILKVPETDEVELTCQATGYPLAEVSWPNVSVPANTSHSRTPEGLYQVTSVLRLKPPPGRNFSCVFWNTHVRELTLASIDLQSQMEPRTHPTGGGGSAPTSSSTKKTQLQLEHLLLDLQMILNGINNYKNPKLTDMLTFEFYMPKKATELKHLQCLERELKPLEEVLNLAQSKNFHLRPRDLISNINVIVLELKGSETTFMCEYADETATIVEFLNRWITFCQSIISTLTDKTHTCPPCPAPEDEGGPSVFLFPPKPKDTLMISRTPEVTCVVVDVSHEDPEVKFNWYVDGVEVHNAKTKPREEQYNSTYRVVSVLTVLHQDWLNGKEYKCKVSNKALPAPIEKTISKAKGQPREPQVYVYPPSREEMTKNQVSLTCLVKGFYPSDIAVEWESNGQPENNYKTTPPVLDEDGSFALVSKLTVDKSRWQQGNVFSCSVMHEALHNHYTQKSLSLSPGK
chain 2: LFTVTVPKELYIIEHGSNVTLECNFDTGSHVNLGAITASLQKVENDTSPHRERATLLEEQLPLGKASFHIPQVQVRDEGQYQCIIIYGVAWDYKYLTLKVKASYRKINTHILKVPETDEVELTCQATGYPLAEVSWPNVSVPANTSHSRTPEGLYQVTSVLRLKPPPGRNFSCVFWNTHVRELTLASIDLQSQMEPRTHPTGGGGSDKTHTCPPCPAPEKKGGPSVFLFPPKPKDTLMISRTPEVTCVVVDVSHEDPEVKFNWYVDGVEVHNAKTKPREEQYNSTYRVVSVLTVLHQDWLNGKEYKCKVSNKALPAPIEKTISKAKGQPREPQVYVLPPSREEMTKNQVSLLCLVKGFYPSDIAVEWESNGQPENRYMTWPPVLDSDGSFFLYSKLTVDKSRWQQGNVFSCSVMHEALHNHYTQKSLSLSPGK
notes: also called IL-2(R38D/K43E/E61R)/PD-L2-Fc immunocytokine; construct #11
**Q.** Does B1 bind?
**A.** no binding
